Data: patent US7858756B2, “Monoclonal antibodies that selectively recognize methamphetamine and methamphetamine like compounds” (The Board of Trustees of the University of Arkansas, priority 2006, dated 2010)
“Also recorded” adds a separate entry of the source.

How the values were obtained:
[1] = RIA, inhibition of [3H]-(+)METH binding to mAb; conditions: RIA IC50 for METH / RIA IC50 for test ligand
Excerpt: In reference to (+)methamphetamine, the IC50 ratio refers to the ratio of the IC50 for (+)methamphetamine in the presence of labeled (+)methamphetamine to the IC50 for a test ligand in the presence of labeled (+)methamphetamine. The IC50 value is the concentration of test ligand required to inhibit 50% of the labeled (+)methamphetamine binding. For instance, see Table 2 in the Examples.
Determination of immunochemical specificity.

[2] = (+)AMP self-administration, fixed interval (60 sec) paradigm; format: in vivo, rats; conditions: 100 mg/kg mAb, 0.03 mg/kg (+)AMP per infusion
Procedure: (§1) FIG. 6 presents graphs depicting the effect of mAb4G9 on METH discrimination (Panel A) and AMP self-administration (Panel B) in rats. (A) Rats were trained to discriminate […] and METH and then administered mAb4G9. Drug discrimination dose response curves were then determined for METH. (B) (+)AMP self-administration before and after treatment with mAb4G9 (3-4 rats/time point). Dashed lines are used to show the groupings of responding for (+)AMP before and after mAb. *P<0.05 compared to control group before antibody (open circles).
We also tested the ability of mAb4G9 to block (+)AMP self-administration in a model in which rats responded under a fixed interval (60 sec) paradigm for a dose of 0.03 mg/kg (+)AMP per infusion.

[3] = Functional half-life study, 14-day continuous (+)METH infusion, serum concentrations; format: in vivo, rats
Procedure: The best-fit line was determined using a weighted two-compartment pharmacokinetic model.
Serum samples were collected pre-mAb and at time points after mAb administration.

[4] = METH infusion by sc osmotic minipump, serum and brain METH and AMP concentrations after mAb; format: in vivo, rat; conditions: for AMP serum concentrations vs pre-mAb levels / METH serum concentrations vs pre-mAb levels: rat serum, 1 min to 24 hr after mAb, FIG. 7
Procedure: FIG. 7 depicts two graphs showing the effect of mAb6H4 (Panel A) and mAb4G9 (Panel B) on METH (closed circles) and AMP (open circles) concentrations in rat serum. METH was infused using a subcutaneous osmotic minipump and once steady state concentrations were reached, anti-METH mAb was administered. Rats were sacrificed at various time points for determination of serum METH and AMP concentrations.
FIG. 8 depicts two graphs showing the effect of mAb6H4 (Panel A) and mAb4G9 (Panel B) on METH (closed circles) and AMP (open circles) concentrations in the rat brain. METH was infused using a subcutaneous osmotic minipump and once steady state concentrations were reached, anti-METH mAb was administered. Rats were sacrificed at various time points for determination of brain METH and AMP concentrations. One way ANOVA followed by a Dunnett's test was used to compare control and post-mAb METH and AMP values.

[5] = METH drug discrimination model; format: in vivo, rats; conditions: 600 mg/kg mAb
Procedure: as §1
The in vivo effects of mAb4G9 were examined using a drug discrimination model. mAb4G9 appeared to be an effective and long-lasting antagonist of METH effects in this model (FIG. 6A). The mAb4G9 (600 mg/kg) shifted the dose response curves for at least 7 days. On the first and second day after mAb treatment, the dose response curve was shifted about 4- to 6-fold. When tested again at 7 days after mAb4G9 treatment, the dose response curve was still shifted about 2.5 fold.

[6] = (+)METH 5.6 mg/kg/day sc minipump, single mAb dose equimolar to body burden

B1: mAb4G9: monoclonal antibody, IgG2b κ, heavy chain SEQ ID NO:25, light chain SEQ ID NO:26, generated against hapten (+)METH MO10-ovalbumin (antibody, listed as Mus musculus)
heavy: EYQLQQSGTVLARPGASVKMSCKASGYTFTSYWMHWVKQRPGQGLEWIGGIYPGNSDTTYNQKFKGKAKLTAVTSTSTAYMELSSLTNEDSAVYYCLYGNYDFDYWGQGTTLTVSSAKTTPPSVYPLAPGCGDTTGSSVTLGCLVKGYFPESVTVTWNSGSLSSSVHTFPALLQSGLYTMSSSVTVPSSTWPSQTVTCSVAHPASSTTVDKKLEPSGPISTINPCPPCKECHKCPAPNLEGGPSVFIFPPNIKDVLMISLTPKVTCVVVDVSEDDPDVQISWFVNNVEVHTAQTQTHREDYNSTIRVVSTLPIQHQDWMSGKEFKCKVNNKDLPSPIERTISKIKGLVRAPQVYILPPPAEQLSRKDVSLTCLVVGFNPGDISVEWTSNGHTEENYKDTAPVLDSDGSYFIYSKLNMKTSKWEKTDSFSCNVRHEGLKNYYLKKTISRSPGK
light: DVQMTQSPSSLSASLGGKVTITCKASQDINKFIAWYQHKPGKGPRLLIHYTSTLQPGIPSRFSGSGSGRDYSFSISNLEPEDIATYYCLQYANLLPWTFGGGTKLEIKRADAAPTVSIFPPSSEQLTSGGASVVCFLNNFYPKDINVKWKIDGSERQNGVLNSWTDQDSKDSTYSMSSTLTLTKDEYERHNSYTCEATHKTSTSPIVKSFNRNEC
Antibody Specificity (IC50 ratio as percent), 4-OH-METH [1]: 10.6%
Antibody Specificity (IC50 ratio as percent), (+)AMP [1]: 34%
Antibody Specificity (IC50 ratio as percent), (+)MDA [1]: 9.0%
Antibody Specificity (IC50 ratio as percent), (+)MDMA [1]: 29%
Antibody Specificity (IC50 ratio as percent), (+)METH [1]: 100%
Antibody Specificity (IC50 ratio as percent), (+)ephedrine [1]: <0.1%
Antibody Specificity (IC50 ratio as percent), (+)norpseudoephedrine [1]: <0.1%
Antibody Specificity (IC50 ratio as percent), (+)phenylpropanolamine [1]: <0.1%
Antibody Specificity (IC50 ratio as percent), (+)pseudoephedrine [1]: 0.4%
Antibody Specificity (IC50 ratio as percent), (−)AMP [1]: 6.3%
Antibody Specificity (IC50 ratio as percent), (−)MDA [1]: 0.2%
Antibody Specificity (IC50 ratio as percent), (−)MDMA [1]: 1.1%
Antibody Specificity (IC50 ratio as percent), (−)METH [1]: 10.2%
Antibody Specificity (IC50 ratio as percent), /-phenylphrine [1]: <0.1%
Antibody Specificity (IC50 ratio as percent), dopamine [1]: <0.1%
Antibody Specificity (IC50 ratio as percent), epinephrine [1]: <0.1%
Antibody Specificity (IC50 ratio as percent), norepinepherine [1]: <0.1%
Antibody Specificity (IC50 ratio as percent), serotonin [1]: <0.1%
Antibody Specificity (IC50 ratio as percent), tyramine [1]: <0.1%
Antibody Specificity (IC50 ratio as percent), β-phenylethylamine [1]: 0.1%
number of (+)AMP injections per session [2]: significantly reduced
serum (+)AMP concentrations compared with pre-mAb [3, 6]: maintained significantly increased concentrations
serum (+)METH concentrations compared with pre-mAb [3, 6]: maintained significantly increased concentrations
time after which mAb still very effective ([3]; continuous (+)METH infusion, single mAb dose): about 2 wks
AMP brain concentrations vs no mAb group ([4]; rat brain, FIG. 8): reduces both METH and AMP concentrations in the brain; also recorded: significantly decreased at the 5 and 30 min time points
METH brain concentrations vs no mAb group ([4]; rat brain, FIG. 8): reduces both METH and AMP concentrations in the brain; also recorded: significantly decreased METH brain concentrations at all time points
AMP serum concentrations vs pre-mAb levels [4]: repartitions AMP into the serum from other compartments; also recorded: maintains significantly elevated serum METH and AMP concentrations 24 h after administration
METH serum concentrations vs pre-mAb levels [4]: maintains significantly elevated serum METH and AMP concentrations 24 h after administration
AMP serum concentrations vs pre-mAb levels ([4]; listed as MAb4G9): significantly increased METH and AMP serum concentrations from 1 min to 24 hrs
METH serum concentrations vs pre-mAb levels ([4]; listed as MAb4G9): significantly increased METH and AMP serum concentrations from 1 min to 24 hrs
duration of shift of dose response curves [5]: at least 7 days
shift of METH dose response curve ([5]; 7 days after treatment): about 2.5 fold

B2: mAb2F11: monoclonal antibody comprising heavy chain SEQ ID NO:19 and light chain SEQ ID NO:21 (antibody, listed as Mus musculus)
heavy: EYQLQQSGTVLARPGASVKMSCKASGYTFTNYWMHWVKQRPGQGLEWIGGIYPGNSDTTYNQKFKGKAKLTAVTSTSTAYMELSSLTNEDSAVYYCLYGNYDFDYWGQGTTLTVSSAKTTAPSVYPLAPVCGDTTGSSVTLGCLVKGYFPEPVTLTWNSGSLSSGVHTFPAVLQSDLYTLSSSVTVTSSTWPSQSITCNVAHPASSTKVDKKIEPRGPTIKPCPPCKCPAPNLLGGPSVFIFPPKIKDVLMISLSPIVTCVVVDVSEDDPDVQISWFVNNVEVHTAQTQTHREDYNSTLRVVSALPIQHQDWMSGKEFKCKVNNKDLPAPIERTISKPKGSVRAPQVYVLPPPEEEMTKKQVTLTCMVTDFMPEDIYVEWTNNGKTELNYKNTEPVLDSDGSYFMYSKLRVEKKNWVERNSYSCSVVHEGLHNHHTTKSFSRTPGK
light: DIQMTQSPSSLSASLGGKVTITCKASHDVNKFIAWYQHKPGKGPRLLIHYTSTLQPGIPSRFSGSGSGRDYSFSISNLEPEDIATYYCLQYTNLLPWTFGGGTKLEIKRADAAPTVSIFPPSSEQLTSGGASVVCFLNNFYPKDINVKWKIDGSERQNGVLNSWTDQDSKDSTYSMSSTLTLTKDEYERHNSYTCEATHKTSTSPIVKSFNRNEC
Antibody Specificity (IC50 ratio as percent), (+)AMP [1]: 33%
Antibody Specificity (IC50 ratio as percent), (+)MDMA [1]: 41%
Antibody Specificity (IC50 ratio as percent), (+)METH [1]: 100%^
Antibody Specificity (IC50 ratio as percent), (−)AMP [1]: 5.3%
Antibody Specificity (IC50 ratio as percent), (−)MDMA [1]: 0.6%
Antibody Specificity (IC50 ratio as percent), (−)METH [1]: 2.2%
